Test results reported in paper PMC4486954, “Highly homologous proteins exert opposite biological activities by using different interaction interfaces” (Scientific Reports, 2015).
Values belong to the molecule of their own block, whether it stands above or below them. No end group written: not given here.

Tests used:
HLT-iASPP Pro [1] = assay: Peptide array screening: HLT-iASPP Pro binding to array of iASPP Ank-SH3 derived peptides; parameters: species or system human; conditions: CelluSpots array, N-acetylated 15-residue peptides on cellulose; 50 mM Phosphate pH 7.0, IS = 150 mM; anti His HRP, chemiluminescence
Procedure: (§1) The CelluSpots^TM peptide micro-arrays were synthesized by INTAVIS Bioanalytical Instruments AG, Köln, Germany. The 15 residue peptides were acetylated at their N-termini and attached to a cellulose membrane via their C termini through an amide bond. For screening the binding of the array to HLT-iASPP Ank-SH3 the array was first washed for 4 h at room temperature with 50 mM Tris-HCl pH = 8 at an ionic strength (IS) of 150 mM adjusted by NaCl, 0.05% Tween20 and 2.5% (W/V) skimmed milk (buffer D) for blocking unspecific binding. HLT-iASPP Ank-SH3 was dissolved in 20 mM Phosphate buffer pH = 7.0 IS = 150 mM, 5 mM βME, 10% glycerol and 0.02% NaN3 and 2.5% skimmed milk. 5 ml of 5 μM of the protein were incubated with the arrays at 4 °C with shaking overnight. After three washes with TBST, the array was incubated with anti His HRP conjugated antibody at room temperature for 1 hour. The antibody was dissolved in buffer D. Then the array was washed again three times with TBST. Immunodetection was performed using chemiluminiscence (ECL reagents). Peptide array screening for binding HLT-iASPP Pro was also preformed as above with change of the proteins buffer. HLT-iASPP Pro was dissolved in 50 mM Phosphate buffer pH = 7.0, 10% glycerol, 0.02% NaN3, 0.001% Tween 20, IS = 150 mM and 2.5% skimmed milk.

HLT-iASPP Ank-SH3 = assay: Peptide array screening: HLT-iASPP Ank-SH3 binding to array of iASPP Pro derived peptides; parameters: species or system human; conditions: CelluSpots array, N-acetylated 15-residue peptides on cellulose; 5 μM protein, 4 °C overnight; IS = 150 mM, pH 7.0; anti His HRP, chemiluminescence
Procedure: as §1

iASPP Ank-SH3 [2] = target: T1, iASPP Ank-SH3 (Homo sapiens, UniProt Q8WUF5); assay: Fluorescence anisotropy binding of fluorescein-labeled iASPP Pro derived peptides to iASPP Ank-SH3; conditions: 250 μM iASPP Ank-SH3 titrated into 100 nM fluorescein-labeled peptide, 10 °C, 20 mM Hepes pH 7.3, ionic strength 50 mM
T1 construct: (2) iASPP Ank-SH3 603-828; HLT tag (His tag + lipoyl domain + TEV site) (N, cleaved yes); made in house; host or cells: E. coli HMS 174 (Novagen)
T1 sequence (Q8WUF5 603-828): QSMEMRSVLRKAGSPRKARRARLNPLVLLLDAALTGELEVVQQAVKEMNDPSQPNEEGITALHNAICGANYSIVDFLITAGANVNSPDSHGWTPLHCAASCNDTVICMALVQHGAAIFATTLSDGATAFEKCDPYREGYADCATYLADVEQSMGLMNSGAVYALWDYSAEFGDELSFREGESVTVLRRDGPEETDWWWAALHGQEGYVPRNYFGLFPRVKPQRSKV
Procedure: Binding of the iASPP Pro-derived peptides to iASPP Ank-SH3 was measured by fluorescence anisotropy using a PerkinElmer Life Sciences LS-50b spectrofluorimeter equipped with a Hamilton microlab M dispenser. Titration of iASPP Ank-SH3 into iASPP Pro derived fluorescein-labeled (FL) peptides was performed at 10 °C in 20 mM Hepes buffer, pH 7.3, 43 mM NaCl (total ionic strength = 50 mM), 10% glycerol and 5 mM β-mercaptoethanol. The excitation wavelength was set at 480 nm and the emission measured at 530 nm. The labeled peptide, dissolved in 1 ml buffer to a final concentration of 100 nM, was placed in the cuvette. 250 μM iASPP Ank-SH3 was placed in the dispenser and aliquots of 10–20 μl were added at 1.5 min intervals. The solution was then stirred for 30 sec, and the fluorescence and anisotropy were measured. Data were analyzed using the program Origin8 (OriginLab) and were fit to 1:1 binding model:
[drawing 1] (R- measured fluorescence anisotropy, R0- anisotropy value corresponding to the free peptide, ∆R- amplitude of the fluorescence anisotropy change, [Protein]- protein concentration, Kd- dissociation constant).

[3] = target: iASPP 616-623 peptide 616-623 (Homo sapiens) (UniProt Q8WUF5); assay: ITC; conditions: cited from earlier work
HLT-iASPP Pro [4] = target: T2, HLT-iASPP Pro (human, UniProt Q8WUF5 1-602); assay: peptide or protein array; CelluSpots array of 24 partly overlapping 15-residue iASPP Ank-SH3 peptides on cellulose; HLT-iASPP Pro in 50 mM phosphate pH 7.0, 10% glycerol, 0.001% Tween 20, ionic strength 150 mM, 2.5% skimmed milk; detected with anti His HRP antibody; conditions: both partners purified
T2 construct: iASPP (human), proline rich (Pro) domain, residues 1-602 of the 828-residue protein, Swiss-Prot Q8WUF5; Cloned EcoRI/NotI into pHis parallel 2HLT; calculated Mw with tag 75.9 kDa; also called iASPP Pro 1-602; iASPP 1-602; source: E. coli Rosetta2, purified (Nickel Sepharose, size exclusion chromatography); not shown: HLT (His tag, lipoyl domain, TEV protease cleavage site), N-terminal, kept
T2 sequence (looked up): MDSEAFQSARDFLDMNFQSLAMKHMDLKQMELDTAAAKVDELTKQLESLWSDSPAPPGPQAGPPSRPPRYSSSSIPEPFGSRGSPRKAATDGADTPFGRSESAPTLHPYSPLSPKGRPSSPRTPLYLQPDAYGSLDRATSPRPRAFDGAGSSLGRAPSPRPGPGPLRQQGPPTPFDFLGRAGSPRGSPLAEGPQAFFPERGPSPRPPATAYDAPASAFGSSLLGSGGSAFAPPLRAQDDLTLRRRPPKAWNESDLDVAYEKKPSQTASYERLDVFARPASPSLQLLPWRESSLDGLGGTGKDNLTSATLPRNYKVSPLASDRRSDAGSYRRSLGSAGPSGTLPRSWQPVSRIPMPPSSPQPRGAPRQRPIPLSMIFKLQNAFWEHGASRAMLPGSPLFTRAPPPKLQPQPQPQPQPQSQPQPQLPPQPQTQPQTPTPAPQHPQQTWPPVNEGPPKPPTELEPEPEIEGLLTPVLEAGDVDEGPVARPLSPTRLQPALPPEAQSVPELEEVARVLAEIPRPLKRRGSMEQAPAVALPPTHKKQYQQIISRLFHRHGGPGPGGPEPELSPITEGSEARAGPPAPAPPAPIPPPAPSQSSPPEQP

iASPP Ank-SH3 [5] = target: T3, iASPP Ank-SH3 (human, UniProt Q8WUF5 603-828); assay: fluorescence polarisation; fluorescence anisotropy; 250 uM iASPP Ank-SH3 titrated into 100 nM fluorescein-labeled peptide; 10 °C; 20 mM Hepes pH 7.3, 43 mM NaCl (ionic strength 50 mM), 10% glycerol, 5 mM β-mercaptoethanol; fit to a 1:1 model; conditions: both partners purified
T3 construct: iASPP (human), four ankyrin repeats and SH3 domain, residues 603-828, Swiss-Prot Q8WUF5; also called iASPP Ank-SH3 603-828; cleaved iASPP Ank-SH3; source: E. coli HMS 174, purified (Nickel Sepharose, TEV cleavage, second Nickel column, size exclusion chromatography); not shown: HLT (His tag, lipoyl domain, TEV protease cleavage site), N-terminal, cleaved
T3 sequence (looked up): T1 sequence (Q8WUF5 603-828)

iASPP Ank-SH3 [6] = target: T1, iASPP Ank-SH3; conditions: cited from earlier work
Text: iASPP 1-478 and specifically iASPP 1-240 but not iASPP 249-482 were previously shown to bind iASPP Ank-SH3 in a pull down assay. We further mapped this interaction using peptide arrays and identified the exact regions in iASPP Pro that bind iASPP Ank-SH3.

Molecule: iASPP 83-90: iASPP Pro derived peptide that includes the iASPP phosphorylation site S84 (GSPRKAAT; UniProt Q8WUF5 83-90, looked up, fragment)
- binding to iASPP Ank-SH3 (in words) (iASPP Ank-SH3 [2]): did not bind
- binding of HLT-iASPP Ank-SH3 to the peptide in the array (HLT-iASPP Ank-SH3): did not bind

Molecule: iASPP Ank-SH3 (from UniProt Q8WUF5)
- Kd [3]: 45 µM

B1: iASPP Ank-SH3 array peptide 800-814 (spot E23) (peptide)
peptide: Ac-WAALHGQEGYVPRNY-{cellulose membrane (amide bond)}
modifications: also: C-terminus bound to cellulose membrane via amide
notes: iASPP (human) residues 800-814; also called iASPP 800-814; source: synthetic peptide on CelluSpots array (INTAVIS)
- binding result (HLT-iASPP Pro [4]): binds

Molecule: {5(6)‑carboxyfluorescein}-KKQYQQIISRLFHRHGGPGPGGP [fluorescein labeled iASPP 540-562]
- Kd (iASPP Ank-SH3 [5]): 34 ± 2 µM

B2: iASPP Ank-SH3 array peptide 739-753 (spot E16) (peptide)
peptide: Ac-EGYADCATYLADVEQ-{cellulose membrane (amide bond)}
modifications: also: C-terminus bound to cellulose membrane via amide
notes: source: synthetic peptide on CelluSpots array (INTAVIS)
- binding result (HLT-iASPP Pro [4]): binds

B3: iASPP 249-482: iASPP fragment 249-482 of a previous pull down assay (protein, UniProt Q8WUF5 249-482, looked up, fragment)
chain: AWNESDLDVAYEKKPSQTASYERLDVFARPASPSLQLLPWRESSLDGLGGTGKDNLTSATLPRNYKVSPLASDRRSDAGSYRRSLGSAGPSGTLPRSWQPVSRIPMPPSSPQPRGAPRQRPIPLSMIFKLQNAFWEHGASRAMLPGSPLFTRAPPPKLQPQPQPQPQPQSQPQPQLPPQPQTQPQTPTPAPQHPQQTWPPVNEGPPKPPTELEPEPEIEGLLTPVLEAGDVDEG
- binding to iASPP Ank-SH3 in pull down assay (iASPP Ank-SH3 [6]): not

B4: iASPP Ank-SH3 array peptide 764-778 (spot E19) (peptide)
peptide: Ac-YALWDYSAEFGDELS-{cellulose membrane (amide bond)}
modifications: also: C-terminus bound to cellulose membrane via amide
notes: as for B2
- binding result (HLT-iASPP Pro [4]): binds

Molecule: {5(6)‑carboxyfluorescein}-QAGPPSRPPRYSSSS [fluorescein labeled iASPP 60-74]
- Kd (iASPP Ank-SH3 [5]): 35 ± 2 µM

B5: iASPP 1-240: iASPP fragment 1-240 of a previous pull down assay (protein, UniProt Q8WUF5 1-240, looked up, fragment)
chain: MDSEAFQSARDFLDMNFQSLAMKHMDLKQMELDTAAAKVDELTKQLESLWSDSPAPPGPQAGPPSRPPRYSSSSIPEPFGSRGSPRKAATDGADTPFGRSESAPTLHPYSPLSPKGRPSSPRTPLYLQPDAYGSLDRATSPRPRAFDGAGSSLGRAPSPRPGPGPLRQQGPPTPFDFLGRAGSPRGSPLAEGPQAFFPERGPSPRPPATAYDAPASAFGSSLLGSGGSAFAPPLRAQDDL
- binding to iASPP Ank-SH3 in pull down assay (iASPP Ank-SH3 [6]): bind

B6: iASPP 1-478: iASPP fragment 1-478 of a previous pull down assay (protein, UniProt Q8WUF5 1-478, looked up, fragment)
chain: MDSEAFQSARDFLDMNFQSLAMKHMDLKQMELDTAAAKVDELTKQLESLWSDSPAPPGPQAGPPSRPPRYSSSSIPEPFGSRGSPRKAATDGADTPFGRSESAPTLHPYSPLSPKGRPSSPRTPLYLQPDAYGSLDRATSPRPRAFDGAGSSLGRAPSPRPGPGPLRQQGPPTPFDFLGRAGSPRGSPLAEGPQAFFPERGPSPRPPATAYDAPASAFGSSLLGSGGSAFAPPLRAQDDLTLRRRPPKAWNESDLDVAYEKKPSQTASYERLDVFARPASPSLQLLPWRESSLDGLGGTGKDNLTSATLPRNYKVSPLASDRRSDAGSYRRSLGSAGPSGTLPRSWQPVSRIPMPPSSPQPRGAPRQRPIPLSMIFKLQNAFWEHGASRAMLPGSPLFTRAPPPKLQPQPQPQPQPQSQPQPQLPPQPQTQPQTPTPAPQHPQQTWPPVNEGPPKPPTELEPEPEIEGLLTPVLEAGD
- binding to iASPP Ank-SH3 in pull down assay (iASPP Ank-SH3 [6]): bind

Other lines, results leading:

- binding of HLT-iASPP Pro to the peptide in the array (HLT-iASPP Pro [1]): bound
Molecule: YALWDYSAEFGDELS [iASPP 764-778, array peptide, iASPP Ank-SH3 residues 764-778, RT loop]

- binding of HLT-iASPP Pro to the peptide in the array (HLT-iASPP Pro [1]): bound
Molecule: EGYADCATYLADVEQ [iASPP 739-753, array peptide, iASPP Ank-SH3 residues 739-753, fourth ankyrin repeat]

- binding of HLT-iASPP Ank-SH3 to the peptide in the array (HLT-iASPP Ank-SH3): bound
Molecule: SMEMRSVLRKAGSPR [iASPP 604-618, array peptide, iASPP residues 604-618]

- binding of HLT-iASPP Pro to the peptide in the array (HLT-iASPP Pro [1]): bound
Molecule: WAALHGQEGYVPRNY [iASPP 800-814, array peptide, iASPP Ank-SH3 residues 800-814]
